Data on one molecule can be found in publication PMC6182170, “A protein–protein interaction underlies the molecular basis for substrate recognition by an adenosine-to-inosine RNA-editing enzyme”.

The series addresses T1, ADR-1 WT (Caenorhabditis elegans, UniProt Q9U3D6 1-964).
T1 sequence: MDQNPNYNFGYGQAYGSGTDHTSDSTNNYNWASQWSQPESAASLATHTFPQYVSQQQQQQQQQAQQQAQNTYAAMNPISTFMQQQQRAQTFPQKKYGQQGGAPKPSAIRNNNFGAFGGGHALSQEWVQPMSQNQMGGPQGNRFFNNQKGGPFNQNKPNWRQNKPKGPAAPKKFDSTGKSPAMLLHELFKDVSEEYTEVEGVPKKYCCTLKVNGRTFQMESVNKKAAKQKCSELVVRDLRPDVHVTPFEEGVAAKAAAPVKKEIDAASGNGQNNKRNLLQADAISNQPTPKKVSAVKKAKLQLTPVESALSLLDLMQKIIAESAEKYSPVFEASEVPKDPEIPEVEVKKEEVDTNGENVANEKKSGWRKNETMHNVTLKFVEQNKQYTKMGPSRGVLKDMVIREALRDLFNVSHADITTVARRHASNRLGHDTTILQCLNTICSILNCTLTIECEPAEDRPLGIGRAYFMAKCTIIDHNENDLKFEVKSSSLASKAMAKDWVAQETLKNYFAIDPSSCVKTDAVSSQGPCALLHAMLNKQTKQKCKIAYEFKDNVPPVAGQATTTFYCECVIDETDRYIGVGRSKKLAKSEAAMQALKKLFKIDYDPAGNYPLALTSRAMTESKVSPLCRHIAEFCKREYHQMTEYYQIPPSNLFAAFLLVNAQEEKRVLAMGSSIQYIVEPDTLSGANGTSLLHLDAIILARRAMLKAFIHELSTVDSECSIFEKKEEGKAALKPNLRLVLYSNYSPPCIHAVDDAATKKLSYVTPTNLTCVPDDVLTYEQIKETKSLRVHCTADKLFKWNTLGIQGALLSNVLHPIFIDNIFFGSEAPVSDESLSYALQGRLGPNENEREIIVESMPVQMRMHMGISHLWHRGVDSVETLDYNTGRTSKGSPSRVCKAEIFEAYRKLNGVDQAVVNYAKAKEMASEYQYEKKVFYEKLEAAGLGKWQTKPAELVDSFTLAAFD
In words: EMSA; apparent Kd; EMSA: 20 pM dsRNA, 50 mM KCl, 10 mM Tris-HCl pH 8.0, 10% glycerol, 1 mM MgCl2, 0.5 mM DTT, on ice 30 min; native 6% gel, 0.5x TBE, 4 C. To be noted: protein: recombinant; tags: N-terminal 6xHis (TEV site); label: 5' 32P on ssRNAs (PNK); imperfect duplex; printed strands 45 and 46 nt.

B1: lam-2 3'UTR 46 bp dsRNA (dsRNA)
RNA 1: AGACACACAUACAAAAUUUACAAAAAUUGUUAAUUGACAAAAUAC
RNA 2: GUGUUUUGCCAAUUAACGAUUUUUUGUAAAUUUUAUAUGUGUCUCU
Turning to B1, the Kd is 1.75 ± 0.15 nM.
